This note sets out measurements from PMC8041205 (2021).

For the experiment, the target named is BSA. The experiment in a line: ITC. A general note: ITC needs no label: the signal is the heat of the interaction.

Bounds are passed on as bounds.

B1: UBE2D1 (R&D) (enzyme)
chain: not shown
B1 came in with an equilibrium dissociation constant (Kd) above 10 mM.

For orientation: Kd means the free concentration of one partner at which half of the binding sites on the other are occupied at equilibrium, for simple one-to-one binding. Higher therefore signals weaker binding.
